Data on 17 molecules can be found in US20250018038A1 (UNIVERSITY OF CHICAGO, published 2025).

Experiment [1] deals with T1, cell surface survivin on cancer cells (human, UniProt O15392 1-142).
T1 construct: whole, on cells
Briefly: flow cytometry of live cells, 200 nM Fab, anti-human F(ab')2-A647 secondary. The procedure:
(§1) Human or murine tumor cells were trypsinized, washed and resuspended in Flow buffer (1×PBS supplemented with 2% FBS) and added to a 96-well plate (#3799, Costar). 200 nM primary CPC Fab was mixed with 0.5M cells and incubated at 37 C for 20 min. […] Samples were analyzed by flow cytometry using CytoFLEX (Beckman Coulter) and mean fluorescence intensity (MFI) data was extracted using the FlowJo software (FIG. 5A-E, FIG. 6). Human peripheral blood mononuclear cells (PBMCs) derived from a single patient were used as a source of healthy human cells. PBMCs were counted, split and spun down 400×g 5 min. Cells were resuspended in Flow buffer (1×PBS supplemented with 2% FBS) and pre-incubated with TruStain FcX (1:20, Biolegend 422302) for 10 min at 37 C, followed by 200 nM primary Fab incubation at 37 for 20 min. […] Mean fluorescence intensity (MFI) data was extracted using the FlowJo software (FIG. 5F).

In experiment [2] the target is T2, Survivin (purified recombinant Survivin protein) (human, UniProt O15392 1-140, limits assumed, biotinylated on the Avi-tag by BirA (antigens for selection and ELISA)).
T2 construct: also called Baculoviral IAP repeat-containing protein 5; BIRC5
Nature of the experiment: multipoint protein ELISA: 50 nM immobilised target, 3-fold serial dilutions of purified Fab, protein L-HRP, sigmoidal fit. The procedure: Protein based multipoint ELISA was performed to estimate the affinity of the generated unique Fabs to their cognate antigens. A fixed concentration of the immobilized target (50 nM) on ELISA plate was incubated with 3-fold serial dilutions of the purified Fabs starting from […] for 15 min. The plates were washed and the bound antigen-Fab complexes were incubated with H1RP-conjugated protein L (1:5000 dilution in PBST). As with phage ELISA, the plates were again washed, developed with TMB substrate and quenched with 1.0 M HCl, and absorbance (A450) was determined. To determine the affinity, the data were fitted in a non-linear sigmoidal function with variable slope in GraphPad PRISM and EC50 value was calculated (FIG. 2).
A general note: ELISA stands for enzyme-linked immunosorbent assay.

The target in another experiment is T3, Bor-N (Biotinylated Avi tag, held on neutravidin; not in the letters).
T3 construct: also called Bor N: 20-88; Borealin N-terminal domain; not shown: Avi tag, and any purification tag or linker
T3 chain: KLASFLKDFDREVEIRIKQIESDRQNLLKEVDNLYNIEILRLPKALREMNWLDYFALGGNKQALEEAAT
Nature of the experiment: single point protein ELISA, 50 nM immobilised target. The procedure: To rapidly reconfirm the binding and specificity of the obtained Fabs after reformatting into the expression vectors single-point Fab ELISA was performed (FIG. 2-3). Briefly, 50 nM Avi-tagged targets were immobilized on the prepared NAV-coated and blocked with 0.5% BSA in PBS 96-well ELISA plates. The target coated plates were washed with appropriate buffer (TBST or PBST) and were incubated with 200 nM Fab for 20 minutes and then washed. The washed plates were incubated with protein L conjugated with HRP (1:5000 diluted in TBST) for 30 minutes. Plates were washed and the reaction was developed using the TMB chromogenic substrate (Thermofisher) and subsequently quenched with 1M HCl. Absorbance was read at 450 nm on Epoch plate reader.

Experiment [3] addresses T4, Survivin of murine tumor cells (CT-26, MC-38) (mouse, UniProt O70201).
T4 construct: also called murine survivin
Nature of the experiment: flow cytometry of live murine colon tumor cells, 200 nM Fab, anti-human F(ab')2-A647 secondary. The method, then:
as §1

Experiment [4] addresses T2, Survivin (purified recombinant Survivin …). Nature of the experiment: SPR: target immobilised on NTA chip by His-tag, 2-fold serial dilutions of Fab, 1:1 Langmuir fit. The procedure:
The targets were immobilized onto a nitrilotriacetic acid (NTA) sensor chip via His-tag. 2-fold serial dilutions of the Fab were injected following ligand immobilization on the sensor chip. For each kinetic assay at least five dilutions of the Fab were tested. The data were fitted using 1:1 Langmuir Model to obtain the on-rate, off-rate and the affinity (KD) of the Fab-target interaction. (FIG. 4).
In general terms: Surface plasmon resonance follows binding to a sensor surface in real time, without labels.

Positions count from the first letter of the chain named.

T2 sequence (O15392 1-140 limits assumed): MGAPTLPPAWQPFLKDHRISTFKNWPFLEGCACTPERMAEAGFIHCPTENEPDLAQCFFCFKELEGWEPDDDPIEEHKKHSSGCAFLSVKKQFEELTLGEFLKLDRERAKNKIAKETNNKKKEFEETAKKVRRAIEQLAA
T1 sequence (O15392 whole entry): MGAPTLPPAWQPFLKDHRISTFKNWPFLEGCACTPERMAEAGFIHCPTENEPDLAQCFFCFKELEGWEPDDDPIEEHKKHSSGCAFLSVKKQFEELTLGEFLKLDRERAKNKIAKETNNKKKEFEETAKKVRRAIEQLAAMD
T4 sequence (O70201 whole entry): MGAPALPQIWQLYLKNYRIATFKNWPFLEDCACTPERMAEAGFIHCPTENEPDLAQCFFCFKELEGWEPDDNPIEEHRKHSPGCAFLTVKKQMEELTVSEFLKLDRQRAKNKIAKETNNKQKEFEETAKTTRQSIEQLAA

B1: SUR-FL-27 (Fab, V domains shown)
VH: EVQLVESGGGLVQPGGSLRLSCAASGFNVYSSYIHWVRQAPGKGLEWVASIYPSSGYTYYADSVKGRFTISADTSKNTAYLQMNSLRAEDTAVYYCARMSYYSWYYHSVYMYGLDYWGQGTLVTVSS
VL: DIQMTQSPSSLSASVGDRVTITCRASQSVSSAVAWYQQKPGKAPKLLIYSASSLYSGVPSRFSGSRSGTDFTLTISSLQPEDFATYYCQQASSDHSLITFGQGTKVEIKR
notes: also called SUR-FL-27 Fab
On to B1, for which the binding result in experiment [1] is given as “binds”.

B2: SUR-N-09 (Fab, V domains shown)
VH: EVQLVESGGGLVQPGGSLRLSCAASGFNFYYSSIHWVRQAPGKGLEWVASISPYSGYTSYADSVKGRFTISADTSKNTAYLQMNSLRAEDTAVYYCARYMYYGWALDYWGQGTLVTVSS
VL: DIQMTQSPSSLSASVGDRVTITCRASQSVSSAVAWYQQKPGKAPKLLIYSASSLYSGVPSRFSGSRSGTDFTLTISSLQPEDFATYYCQQGQWWGLITFGQGTKVEIKR
notes: also called SUR-N-09 Fab
Take B2: the EC50 (commonly the midpoint of the concentration-response curve) in experiment [2] worked out at 30 nM.

B3: SUR-FL-22 (Fab, V domains shown)
VH: EVQLVESGGGLVQPGGSLRLSCAASGFNFYSSYIHWVRQAPGKGLEWVASIYSYSSSTSYADSVKGRFTISADTSKNTAYLQMNSLRAEDTAVYYCARAGWYWYYGIQFAFDYWGQGTLVTVSS
VL: B2 VL with G91Q, Q92R, W93Y, W94G, G95S
notes: also called SUR-FL-22 Fab
On to B3, for which the EC50 in experiment [2] came to 3 nM.

B4: SUR-N-37 (Fab, V domains shown)
VH: EVQLVESGGGLVQPGGSLRLSCAASGFNVSYSSIHWVRQAPGKGLEWVASISSYYGSTSYADSVKGRFTISADTSKNTAYLQMNSLRAEDTAVYYCARSTYYSWYPYYYAMWHQHGMDYWGQGTLVTVSS
VL: B2 VL with G91S, Q92P, W93M, W94Y, G95S
notes: also called SUR-N-37 Fab
B4: the binding result in the experiment with Bor-N is reported as “no binding (tested: 200 nM)”. For the same molecule, the EC50 in experiment [2] came out at 1 nM.

B5: SUR-N-53 (Fab, V domains shown)
VH: EVQLVESGGGLVQPGGSLRLSCAASGFNVSSSYIHWVRQAPGKGLEWVASIYSYYGSTSYADSVKGRFTISADTSKNTAYLQMNSLRAEDTAVYYCARSFTEKWAYSWAIDYWGQGTLVTVSS
VL: DIQMTQSPSSLSASVGDRVTITCRASQSVSSAVAWYQQKPGKAPKLLIYSASSLYSGVPSRFSGSRSGTDFTLTISSLQPEDFATYYCQQYAWSLFTFGQGTKVEIKR
notes: also called SUR-N-53 Fab
Take B5: the EC50 in experiment [2] is 100 nM.

B6: SUR-N-28 (Fab, V domains shown)
VH: EVQLVESGGGLVQPGGSLRLSCAASGFNFSSSYIHWVRQAPGKGLEWVASIYSSYGYTSYADSVKGRFTISADTSKNTAYLQMNSLRAEDTAVYYCARSYYYQYSGGWRGYYHALDYWGQGTLVTVSS
VL: B5 VL with Y91S, A92S, W93S, F96I
notes: also called SUR-N-28 Fab
As to B6, the EC50 in experiment [2] worked out at 3 nM.

B7: SUR-N-36 Fab (Fab, V domains shown)
VH: EVQLVESGGGLVQPGGSLRLSCAASGFNVSYSSIHWVRQAPGKGLEWVASIYPYYGYTSYADSVKGRFTISADTSKNTAYLQMNSLRAEDTAVYYCAREEYSTVQYWYYYWYPGMDYWGQGTLVTVSS
VL: B5 VL with A92M, W93Y, L95P, F96I
Regarding B7, in experiment [3], the binding result is “binds”. Besides, the Kd (as a rule, the equilibrium constant for the complex coming apart) in experiment [4] was 4.2 nM. Besides, in experiment [2], the EC50 worked out at 2 nM.

B8: SUR-FL-52 (Fab, V domains shown)
VH: EVQLVESGGGLVQPGGSLRLSCAASGFNFSSSSIHWVRQAPGKGLEWVASIYPYSGSTYYADSVKGRFTISADTSKNTAYLQMNSLRAEDTAVYYCARWDFGYYYWYSAIDYWGQGTLVTVSS
VL: B5 VL with A92W, W93Y, S94T, F96I
notes: also called SUR-FL-52 Fab
As to B8, the binding result in experiment [1] is “binds”.

B9: SUR-N-40 Fab (Fab, V domains shown)
VH: EVQLVESGGGLVQPGGSLRLSCAASGFNFSSSSIHWVRQAPGKGLEWVAYIYPSYGYTSYADSVKGRFTISADTSKNTAYLQMNSLRAEDTAVYYCARSLYSKMWYYGSYYFYQVGLDYWGQGTLVTVSS
VL: B5 VL with Y91G, A92Y, W93K, S94Y, F96V
B9: in experiment [3], the binding result is listed as “binds”. For the same molecule, in experiment [4], the Kd stood at 2.1 nM. Besides, in experiment [2], the EC50 was less than 1 nM.

B10: SUR-FL-23 (Fab, V domains shown)
VH: EVQLVESGGGLVQPGGSLRLSCAASGFNFSSSSIHWVRQAPGKGLEWVASISSYSSSTSYADSVKGRFTISADTSKNTAYLQMNSLRAEDTAVYYCARYMVSMWSYSWYVKWYAMDYWGQGTLVTVSS
VL: B5 VL with Y91S, A92S, W93S, F96I
notes: also called SUR-FL-23 Fab
Consider B10, for which, in experiment [2], the EC50 amounted to 1 nM.

B11: SUR-FL-29 Fab (Fab, V domains shown)
VH: EVQLVESGGGLVQPGGSLRLSCAASGFNVSYYSIHWVRQAPGKGLEWVASIYPYYGSTSYADSVKGRFTISADTSKNTAYLQMNSLRAEDTAVYYCARWQFYGYYHGLYFTDLGIDYWGQGTLVTVSS
VL: B5 VL with Y91S, A92G, W93G, S94F, L95P, F96I
As for B11, the binding result in experiment [3] and in experiment [1] was “binds” throughout.

B12: SUR-FL-47 (Fab, V domains shown)
VH: EVQLVESGGGLVQPGGSLRLSCAASGFNVSYSSIHWVRQAPGKGLEWVASIYSYYGYTSYADSVKGRFTISADTSKNTAYLQMNSLRAEDTAVYYCARWPHYWGQGVSSMDYWGQGTLVTVSS
VL: B5 VL with Y91S, A92Y, W93Y, S94F, L95P, F96V
notes: also called SUR-FL-47 Fab
For B12, the EC50 in experiment [2] was found to be 29 nM.

B13: SUR-FL-24 (Fab, V domains shown)
VH: EVQLVESGGGLVQPGGSLRLSCAASGFNFYSSSIHWVRQAPGKGLEWVASIYPYYSSTSYADSVKGRFTISADTSKNTAYLQMNSLRAEDTAVYYCARWYHYYSVQQYGLDYWGQGTLVTVSS
VL: B5 VL with Y91S, A92T, W93S, S94F, L95P, F96I
notes: also called SUR-FL-24 Fab
On to B13, for which the EC50 in experiment [2] worked out at 18 nM.

B14: SUR-FL-26 (Fab, V domains shown)
VH: EVQLVESGGGLVQPGGSLRLSCAASGFNVSYSSIHWVRQAPGKGLEWVASISPYYGYTYYADSVKGRFTISADTSKNTAYLQMNSLRAEDTAVYYCARWYFEYPYYMWGLDYWGQGTLVTVSS
VL: B5 VL with Y91S, A92Y, W93K, S94P, L95P, F96I
notes: also called SUR-FL-26 Fab
B14: the EC50 in experiment [2] was less than 1 nM.

B15: SUR-FL-31 (Fab, V domains shown)
VH: EVQLVESGGGLVQPGGSLRLSCAASGFNFSSSSIHWVRQAPGKGLEWVASISSYSGYTYYADSVKGRFTISADTSKNTAYLQMNSLRAEDTAVYYCARGKQKSYGQWYFYYWAIDYWGQGTLVTVSS
VL: B5 VL with Y91S, A92S, W93S, F96I
notes: also called SUR-FL-31 Fab
Turning to B15, the EC50 in experiment [2] amounted to 2 nM.

B16: SUR-FL-25 (Fab, V domains shown)
VH: EVQLVESGGGLVQPGGSLRLSCAASGFNVYSSSIHWVRQAPGKGLEWVASIYPYYSYTSYADSVKGRFTISADTSKNTAYLQMNSLRAEDTAVYYCARWKKSRSGGMWGMDYWGQGTLVTVSS
VL: B5 VL with A92S, W93S, S94F, L95P, F96I
notes: also called SUR-FL-25 Fab
For B16, the EC50 in experiment [2] worked out at 10 nM.

B17: SUR-N-07 (Fab, V domains shown)
VH: B8 VH with Y52S, S57Y, D100Y, F101W, G102A, Y104P, Y107W, S108Y, I110M
VL: B5 VL with Y91S, A92W, W93G, S94P, L95P, F96V
notes: also called SUR-N-07 Fab
For the molecule B17, in experiment [1], the binding result is “binds”.
